Data from patent publication US20260243776A1 (LEIBNIZ INSTITUT F R ALTERNSFORSCHUNG FRITZ LIPMANN …, published 2026).

Legend:
BRD2 = BRD2 (human, UniProt P25440 1-801, limits assumed); test: proximity biotinylation in HEK293T cells treated with the PROTAC KB02-JQ1 (10 uM), with or without MG132; recruitment induced by the small molecule
Protocol: (§1) The expression of BirA* or miniTurbo fusion proteins were induced by a single addition of tetracycline stock (solved in ethanol) exposing the cells to its final concentration of 1 μg/μl in total for 4 days. 2 hours (miniTurbo lines) or 24 hours (BirA* lines) prior to cell harvesting, 50 μM biotin was added to the culture media. […] Upon treatment, cells were washed 3×times with PBS and harvested by trypsinization. For each sample, a pellet corresponding to 20 million cells was collected and snap-frozen in liquid nitrogen.

BRD3 = BRD3 (human, UniProt Q15059 2-726, limits assumed); test: as above
Sequence of BRD3 (Q15059 2-726 limits assumed): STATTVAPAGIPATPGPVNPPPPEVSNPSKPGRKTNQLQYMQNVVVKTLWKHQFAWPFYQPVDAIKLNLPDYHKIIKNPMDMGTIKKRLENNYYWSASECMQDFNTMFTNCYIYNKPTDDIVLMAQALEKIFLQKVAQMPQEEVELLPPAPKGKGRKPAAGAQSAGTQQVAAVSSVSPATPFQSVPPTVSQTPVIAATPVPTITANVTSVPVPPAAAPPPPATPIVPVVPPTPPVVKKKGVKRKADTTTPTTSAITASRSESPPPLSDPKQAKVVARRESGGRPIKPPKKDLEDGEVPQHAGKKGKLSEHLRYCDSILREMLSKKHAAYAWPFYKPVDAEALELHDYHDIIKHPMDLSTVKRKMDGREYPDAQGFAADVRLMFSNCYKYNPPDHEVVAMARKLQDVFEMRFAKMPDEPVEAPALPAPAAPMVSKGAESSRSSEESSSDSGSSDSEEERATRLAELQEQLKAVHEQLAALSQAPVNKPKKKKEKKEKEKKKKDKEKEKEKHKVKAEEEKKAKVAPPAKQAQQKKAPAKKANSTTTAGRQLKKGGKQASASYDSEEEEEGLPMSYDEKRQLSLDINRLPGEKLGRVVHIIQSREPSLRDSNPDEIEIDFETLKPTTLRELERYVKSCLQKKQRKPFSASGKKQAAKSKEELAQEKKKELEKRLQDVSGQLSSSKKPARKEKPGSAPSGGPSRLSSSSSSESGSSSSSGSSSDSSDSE
Protocol: as §1

Sequence of BRD2 (P25440 whole entry): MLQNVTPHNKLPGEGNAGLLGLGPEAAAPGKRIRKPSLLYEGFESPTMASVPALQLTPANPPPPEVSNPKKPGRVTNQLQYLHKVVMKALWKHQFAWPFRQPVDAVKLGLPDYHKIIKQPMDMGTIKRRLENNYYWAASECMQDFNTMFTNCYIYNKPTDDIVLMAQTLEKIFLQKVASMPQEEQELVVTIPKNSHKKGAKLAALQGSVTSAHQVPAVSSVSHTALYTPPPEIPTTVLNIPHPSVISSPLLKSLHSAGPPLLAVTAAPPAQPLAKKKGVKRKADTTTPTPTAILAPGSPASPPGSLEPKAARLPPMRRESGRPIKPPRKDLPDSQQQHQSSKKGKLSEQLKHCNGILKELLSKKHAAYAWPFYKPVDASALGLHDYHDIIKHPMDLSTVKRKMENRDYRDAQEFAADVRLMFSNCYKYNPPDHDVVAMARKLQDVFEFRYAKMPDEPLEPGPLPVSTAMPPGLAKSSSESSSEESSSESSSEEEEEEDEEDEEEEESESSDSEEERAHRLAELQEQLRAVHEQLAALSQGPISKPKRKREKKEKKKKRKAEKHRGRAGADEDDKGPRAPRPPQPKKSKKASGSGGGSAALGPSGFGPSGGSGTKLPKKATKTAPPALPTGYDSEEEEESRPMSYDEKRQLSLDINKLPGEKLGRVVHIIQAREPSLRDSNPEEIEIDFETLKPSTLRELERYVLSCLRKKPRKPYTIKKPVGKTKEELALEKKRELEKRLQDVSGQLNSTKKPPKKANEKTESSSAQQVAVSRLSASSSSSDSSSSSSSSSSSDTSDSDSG

binding result (BRD2): binds
binding result (BRD3): binds
B1: PSMA4-miniTurbo-FLAG (other)
chain: MSRRYDSRTTIFSPEGRLYQVEYAMEAIGHAGTCLGILANDGVLLAAERRNIHKLLDEVFFSEKIYKLNEDMACSVAGITSDANVLTNELRLIAQRYLLQYQEPIPCEQLVTALCDIKQAYTQFGGKRPFGVSLLYIGWDKHYGFQLYQSDPSGNYGGWKATCIGNNSAAAVSMLKQDYKEGEMTLKSALALAIKVLNKTMDVSKLSAEKVEIATLTRENGKTVIRVLKQKEVEQLIKKHEEEEAKAEREKKEKEQKEKDKYPTFLYKVVDSRMASIPLLNAKQILGQLDGGSVAVLPVVDSTNQYLLDRIGELKSGDACIAEYQQAGRGSRGRKWFSPFGANLYLSMFWRLKRGPAAIGLGPVIGIVMAEALRKLGADKVRVKWPNDLYLQDRKLAGILVELAGITGDAAQIVIGAGINVAMRRVEESVVNQGWITLQEAGINLDRNTLAAMLIRELRAALELFEQEGLAPYLSRWEKLDNFINRPVKLIIGDKEIFGISRGIDKQGALLLEQDGVIKPWMGGEISLRSAEKLQDDYKDDDDK
notes: also called A4-mT; PSMA4_miniTurboID
